Laboratory results from patent publication US20100092465A1, “TREATMENT OF GRAFT-VERSUS-HOST DISEASE” (priority 2006, published 2010).

Columns and labels:
huIL-27 [1] = target: T1, huIL-27 (Homo sapiens, UniProt Q14213+Q8NEV9); test: Phospho-STAT3 neutralization assay, mouse spleens, huIL-27; type: cell-based; conditions: mouse spleens; phospho-STAT3; read-out: EC90 concentration
T1 sequence (Q14213 21-229): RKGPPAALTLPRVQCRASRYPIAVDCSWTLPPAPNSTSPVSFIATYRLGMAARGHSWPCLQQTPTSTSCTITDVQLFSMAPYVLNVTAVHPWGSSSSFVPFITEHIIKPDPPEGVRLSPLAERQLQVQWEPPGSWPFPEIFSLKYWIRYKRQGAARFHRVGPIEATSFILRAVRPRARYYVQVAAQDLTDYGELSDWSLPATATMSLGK
T1 sequence (Q8NEV9 29-243): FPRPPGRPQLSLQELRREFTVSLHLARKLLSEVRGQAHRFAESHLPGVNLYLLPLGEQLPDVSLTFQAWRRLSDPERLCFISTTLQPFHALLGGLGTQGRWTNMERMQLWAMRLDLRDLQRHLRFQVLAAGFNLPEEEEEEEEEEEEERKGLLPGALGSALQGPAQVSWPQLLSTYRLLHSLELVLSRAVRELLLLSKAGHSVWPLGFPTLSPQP
From the text: (§1) Whole mouse spleens were harvested from C57 B1/6 mice and washed two times with 1×PBS before being plated out at 2×10^5 cells/well in assay media (RPMI 1640 plus 10% fetal bovine serum) in 96-well, round-bottom tissue culture plates. Total human PBMC (peripheral blood mononuclear cells) were thawed from a frozen vial collected from a leukapherisis donation and washed two times with 1×PBS before being plated out at 10^6 cells/well in assay media in 96-well, round-bottom tissue culture plates. […] Following pre-incubation, treatments were added to the plates containing the cells and incubated together at 37° C. for 15 minutes.
(§2) Following incubation, cells were washed with ice-cold wash buffer (BIO-PLEX Cell Lysis Kit, BIO-RAD Laboratories, Hercules, Calif.) and put on ice to stop the reaction according to manufacturer's instructions. […]
(§3) Capture beads (BIO-PLEX Phospho-Stat3 Assay, BIO-RAD Laboratories) were combined with 50 μL of 1:1 diluted lysates and added to a 96-well filter plate according to manufacture's instructions (BIO-PLEX Phosphoprotein Detection Kit, BIO-RAD Laboratories). […] After the final wash, beads were resuspended in 125 μL/well of bead suspension buffer, shaken for 30 seconds, and read on an array reader (BIO-PLEX, BIO-RAD Laboratories) according to the manufacture's instructions. Data were analyzed using analytical softward (BIO-PLEX MANAGER 3.0, BIO-RAD Laboratories). […]

huIL-27 [2] = target: T1, huIL-27; test: Phospho-STAT3 neutralization assay, total human PBMCs, huIL-27; type: cell-based; conditions: total human PBMCs; phospho-STAT3; read-out: EC90 concentration
From the text: as §1, §2, §3

BHK-mIL-27R cells = target: T2, BHK-mIL-27R cells (Mus musculus, UniProt O70394); test: Competition binding against 125I-labeled A1426F; conditions: 0.1 nM label; competitor 50 nM to 7.6 pM; 4 hours on ice
T2 construct: expressed in transfected cells; host or cells: BHK cells
T2 sequence (O70394 25-623): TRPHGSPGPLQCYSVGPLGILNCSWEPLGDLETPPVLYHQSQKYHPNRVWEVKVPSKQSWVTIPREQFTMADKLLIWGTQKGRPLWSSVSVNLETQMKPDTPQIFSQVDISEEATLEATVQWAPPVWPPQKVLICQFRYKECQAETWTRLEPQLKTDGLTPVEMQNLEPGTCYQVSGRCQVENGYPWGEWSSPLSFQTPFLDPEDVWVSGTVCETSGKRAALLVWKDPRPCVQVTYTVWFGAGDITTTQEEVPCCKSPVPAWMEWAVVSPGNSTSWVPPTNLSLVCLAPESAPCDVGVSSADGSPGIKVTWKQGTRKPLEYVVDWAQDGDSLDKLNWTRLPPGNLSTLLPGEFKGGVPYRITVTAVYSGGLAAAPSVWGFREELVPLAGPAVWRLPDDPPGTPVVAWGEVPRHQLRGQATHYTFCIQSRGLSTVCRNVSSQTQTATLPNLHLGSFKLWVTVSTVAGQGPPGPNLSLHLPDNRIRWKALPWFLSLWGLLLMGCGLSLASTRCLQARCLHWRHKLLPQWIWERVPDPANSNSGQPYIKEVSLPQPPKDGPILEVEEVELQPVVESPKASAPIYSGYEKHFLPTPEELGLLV
T2 sequence (Q00560 23-917 partner): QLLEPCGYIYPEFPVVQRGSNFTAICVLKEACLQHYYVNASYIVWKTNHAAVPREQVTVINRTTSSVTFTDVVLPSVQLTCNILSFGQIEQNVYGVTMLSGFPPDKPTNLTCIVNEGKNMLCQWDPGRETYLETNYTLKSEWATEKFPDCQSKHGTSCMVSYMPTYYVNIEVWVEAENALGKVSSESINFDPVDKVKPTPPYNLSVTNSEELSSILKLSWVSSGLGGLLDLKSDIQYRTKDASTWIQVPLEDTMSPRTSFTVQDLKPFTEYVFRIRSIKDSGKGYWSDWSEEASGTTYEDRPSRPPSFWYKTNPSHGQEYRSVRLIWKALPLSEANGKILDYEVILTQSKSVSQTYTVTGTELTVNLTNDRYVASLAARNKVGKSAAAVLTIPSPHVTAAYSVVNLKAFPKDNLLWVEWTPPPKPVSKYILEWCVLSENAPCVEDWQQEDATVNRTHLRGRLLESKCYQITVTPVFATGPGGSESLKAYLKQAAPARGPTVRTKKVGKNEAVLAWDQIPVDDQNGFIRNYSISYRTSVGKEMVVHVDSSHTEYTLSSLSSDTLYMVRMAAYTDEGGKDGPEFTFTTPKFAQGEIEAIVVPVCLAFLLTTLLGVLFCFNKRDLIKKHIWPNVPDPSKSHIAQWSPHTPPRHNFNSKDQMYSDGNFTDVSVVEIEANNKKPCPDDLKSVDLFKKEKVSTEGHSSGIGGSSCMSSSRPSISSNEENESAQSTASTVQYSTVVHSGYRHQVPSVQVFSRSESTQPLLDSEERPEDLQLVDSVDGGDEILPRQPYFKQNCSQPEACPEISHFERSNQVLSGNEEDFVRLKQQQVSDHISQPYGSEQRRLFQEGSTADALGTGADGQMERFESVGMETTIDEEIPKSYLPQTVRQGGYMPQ
Procedure: For competition binding studies, ^125I-labeled A1426F (0.1 nM) was added to preparations of unlabeled A1426F, mouse IL-27 p28 with a C-terminal polyhistidine tag (A1406F), or an unrelated control protein titered from 50 nM to 7.6 pM in 1:3 serial dilutions. These preparations were incubated with BHK-mIL-27R cells for 4 hours on ice. The cells were then washed three times with ice-cold binding buffer, then solublized with 1N NaOH. These lysates were then checked for bound A1426F by checking for radiation with a gamma counter.

Row | Substance | EC90 (huIL-27 [1]) [nM] | EC90 (huIL-27 [2]) [nM] | competition with ^125I-labeled A1426F for binding (BHK-mIL-27R cells)
1 | huIL-27: human IL-27 ligand [reference compound] | 2 | 2 | 
2 | A1406F: mouse IL-27 p28 with a C-terminal polyhistidine tag |  |  | unable to compete
